Positions count from the first letter of the chain named. Numbers in names are those of the source.
B1: wild-type ALDH7A1 (aldehyde dehydrogenase 7A1) (enzyme, human, UniProt P49419 27-539, looked up)
chain: AFMSTLLINQPQYAWLKELGLREENEGVYNGSWGGRGEVITTYCPANNEPIARVRQASVADYEETVKKAREAWKIWADIPAPKRGEIVRQIGDALREKIQVLGSLVSLEMGKILVEGVGEVQEYVDICDYAVGLSRMIGGPILPSERSGHALIEQWNPVGLVGIITAFNFPVAVYGWNNAIAMICGNVCLWKGAPTTSLISVAVTKIIAKVLEDNKLPGAICSLTCGGADIGTAMAKDERVNLLSFTGSTQVGKQVGLMVQERFGRSLLELGGNNAIIAFEDADLSLVVPSALFAAVGTAGQRCTTARRLFIHESIHDEVVNRLKKAYAQIRVGNPWDPNVLYGPLHTKQAVSMFLGAVEEAKKEGGTVVYGGKVMDRPGNYVEPTIVTGLGHDASIAHTETFAPILYVFKFKNEEEVFAWNNEVKQGLSSSIFTKDLGRIFRWLGPKGSDCGIVNVNIPTSGAEIGGAFGGEKHTGGGRESGSDAWKQYMRRSTCTINYSKDLPLAQGIKFQ
B2: ALDH7A1 E427D (Glu427Asp) (enzyme, human, UniProt P49419 27-539, looked up)
chain: B1 chain with E401D
B3: ALDH7A1 E427G (Glu427Gly) (enzyme, human, UniProt P49419 27-539, looked up)
chain: B1 chain with E401G
B4: ALDH7A1 E427Q (Glu427Gln) (enzyme, human, UniProt P49419 27-539, looked up)
chain: B1 chain with E401Q

Legend:
[1] = biological target: T1, ALDH7A1 (aldehyde dehydrogenase 7A1; antiquitin) (Homo sapiens, UniProt P49419, E427Q); experiment: X-ray crystal structure, […] Å, co-crystallisation; type: binding; conditions: 15 mM NAD+; pH 6.2; ADP portion ordered, NMN disordered
T1 sequence (P49419 29-539 E427Q): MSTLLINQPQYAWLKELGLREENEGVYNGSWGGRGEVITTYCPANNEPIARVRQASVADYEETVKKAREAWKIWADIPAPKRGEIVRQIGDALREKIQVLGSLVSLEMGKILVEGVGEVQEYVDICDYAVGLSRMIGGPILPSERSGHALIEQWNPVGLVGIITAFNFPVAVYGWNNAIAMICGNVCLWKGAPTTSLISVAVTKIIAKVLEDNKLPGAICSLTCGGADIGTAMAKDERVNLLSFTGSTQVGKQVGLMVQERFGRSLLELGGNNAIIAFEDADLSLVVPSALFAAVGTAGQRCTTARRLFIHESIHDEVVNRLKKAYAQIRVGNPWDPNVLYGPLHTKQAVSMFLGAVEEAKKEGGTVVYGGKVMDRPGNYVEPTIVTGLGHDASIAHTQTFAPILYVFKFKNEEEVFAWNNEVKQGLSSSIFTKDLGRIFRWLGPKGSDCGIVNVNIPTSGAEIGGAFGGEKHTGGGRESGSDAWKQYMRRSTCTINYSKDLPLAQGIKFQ

[2] = biological target: T2, ALDH7A1 (aldehyde dehydrogenase 7A1; antiquitin) (Homo sapiens, UniProt P49419, E427G); experiment: X-ray crystal structure, […] Å, co-crystallisation; type: binding; conditions: 5 mM NAD+; pH 6.5; NMN disordered
T2 sequence (P49419 29-539 E427G): T1 sequence (P49419 29-539 E427Q) with Q399G

SAXS = biological target: the molecule itself; experiment: SAXS
crystal structure = biological target: the molecule itself; experiment: crystal structure

Molecule | stoichiometry N (crystal structure) | further results
NC(=O)c1ccc[n+]([C@@H]2O[C@H](COP(=O)(O)OP(=O)(O)OC[C@H]3O[C@@H](n4cnc5c(N)ncnc54)[C@H](O)[C@@H]3O)[C@@H](O)[C@H]2O)c1 [NAD^+] | – | X-ray crystal structure, 2.06 Å, co-crystallisation [1]: The crystal structure of E427Q complexed with NAD^+ was determined in space group C2; X-ray crystal structure, 2.15 Å, co-crystallisation [2]: the NMN of NAD^+ bound to E427G is disordered
B1 | – | stoichiometry N (SAXS): 4
B2 | 4 | –
B3 | 4 | –
B4 | 4 | –

— publication PMC7182499 (Journal of inherited metabolic disease, 2019)
